Experimental findings from publication PMC9734910 are described below.

This experiment deals with Bat37ACE2(18–740) (Pipistrellus pipistrellus (Bat37)). The experiment can be described thus: […]; 20 mM HEPES, 100 mM NaCl, pH 7.5.

For Bat37ACE2(18–740) (domain or fragment), the stoichiometry N amounted to 2.
